# Assay results: paper PMC7971519
# Target: PRRSV nonstructural protein 2 transframe product (nsp2TF) (porcine reproductive and respiratory syndrome virus 2 (PRRSV-2), isolate SD95-21)
# Experiment: co-IP; lysates of PRRSV-infected MARC-145 cells collected at 8, 10 and 12 hpi; IP with rabbit anti-nsp2TF pAb or anti-nsp2 pAb (C-terminal peptides); blots probed with anti-GP5 and anti-M mAbs; densitometry; mock-infected lysate as control
Substance,"fold more M protein co-precipitated than in the nsp2 IP, 8 hpi","fold more M protein co-precipitated than in the nsp2 IP, 10 hpi","fold more M protein co-precipitated than in the nsp2 IP, 12 hpi","fold more GP5 co-precipitated than in the nsp2 IP, 8 hpi","fold more GP5 co-precipitated than in the nsp2 IP, 10 hpi","fold more GP5 co-precipitated than in the nsp2 IP, 12 hpi"
PRRSV membrane (M) protein (natural protein),3.38 fold,3.44 fold,2.77 fold,,,
PRRSV GP5 glycoprotein (natural protein),,,,3.39 fold,3.26 fold,3.36 fold
